Each block holds one binder with its values, some of them ahead of it.
Columns and labels:
[1] = target: T1, 158P1D7 protein expressed on the cell surface (human, UniProt Q9H5Y7 27-841); assay: binding to 158P1D7 expressing cells; method not given
T1 construct: No signal peptide limits are stated; also called SLITRK6; SLITRK-6
T1 sequence: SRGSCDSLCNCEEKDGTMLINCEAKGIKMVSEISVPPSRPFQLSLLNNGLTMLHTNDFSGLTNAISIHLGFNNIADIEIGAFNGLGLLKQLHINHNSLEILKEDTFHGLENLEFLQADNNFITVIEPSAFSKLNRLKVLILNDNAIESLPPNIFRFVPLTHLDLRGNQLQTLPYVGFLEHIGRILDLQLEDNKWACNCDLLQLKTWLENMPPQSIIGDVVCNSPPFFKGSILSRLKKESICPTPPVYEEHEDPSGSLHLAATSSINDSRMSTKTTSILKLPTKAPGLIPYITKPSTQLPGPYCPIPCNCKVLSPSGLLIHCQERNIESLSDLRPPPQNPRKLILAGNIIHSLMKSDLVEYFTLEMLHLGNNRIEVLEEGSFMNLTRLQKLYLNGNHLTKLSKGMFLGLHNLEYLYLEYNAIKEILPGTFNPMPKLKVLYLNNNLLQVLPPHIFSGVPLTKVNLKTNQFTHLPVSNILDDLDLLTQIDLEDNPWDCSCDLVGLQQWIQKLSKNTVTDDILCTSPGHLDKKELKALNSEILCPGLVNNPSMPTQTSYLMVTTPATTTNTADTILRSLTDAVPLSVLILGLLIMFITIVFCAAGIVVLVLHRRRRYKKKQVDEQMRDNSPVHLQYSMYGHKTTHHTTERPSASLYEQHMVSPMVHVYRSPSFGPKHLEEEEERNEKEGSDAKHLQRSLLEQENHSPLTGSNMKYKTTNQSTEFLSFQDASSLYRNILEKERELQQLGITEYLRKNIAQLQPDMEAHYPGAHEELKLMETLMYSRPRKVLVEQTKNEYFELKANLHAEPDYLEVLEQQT

[2] = target: T1, 158P1D7 protein expressed on the cell …; assay: FACS saturation binding on SW780 cells, one site binding fit (Graphpad Prism)

binding result [1]: binds
B1: 158P1D7 MAb Ha15-10ac12 (antibody, human IgG2, kappa, V domains shown)
VH: QVQLVESGGGVVQPGRSLRLSCAASGFTFSSYGMHWVRQAPGKGLEWVAVIWYDGSNQYYADSVKGRFTISRDNSKNTLFLQMHSLRAEDTAVYYCARGLTSGRYGMDVWGQGTTVTVSS
VL: DIVMTQSPLSLPVTPGEPASISCRSSQSLLLSHGFNYLDWYLQKPGQSPQLLIYLGSSRASGVPDRFSGSGSGTDFTLKISRVEAEDVGLYYCMQPLQIPWTFGQGTKVEIKR
notes: Fully human IgG2 kappa antibody from XenoMouse; It was tested both as material purified from the hybridoma and as recombinant material from CHO-K1SV cells; also called Ha15-10ac12 MAb

Kd [2]: 5 pM
B2: Ha15-10ac12vcMMAE (other)
heavy: QVQLVESGGGVVQPGRSLRLSCAASGFTFSSYGMHWVRQAPGKGLEWVAVIWYDGSNQYYADSVKGRFTISRDNSKNTLFLQMHSLRAEDTAVYYCARGLTSGRYGMDVWGQGTTVTVSSASTKGPSVFPLAPCSRSTSESTAALGCLVKDYFPEPVTVSWNSGALTSGVHTFPAVLQSSGLYSLSSVVTVPSSNFGTQTYTCNVDHKPSNTKVDKTVERKCCVECPPCPAPPVAGPSVFLFPPKPKDTLMISRTPEVTCVVVDVSHEDPEVQFNWYVDGVEVHNAKTKPREEQFNSTFRVVSVLTVVHQDWLNGKEYKCKVSNKGLPAPIEKTISKTKGQPREPQVYTLPPSREEMTKNQVSLTCLVKGFYPSDIAVEWESNGQPENNYKTTPPMLDSDGSFFLYSKLTVDKSRWQQGNVFSCSVMHEALHNHYTQKSLSLSPGK
light: DIVMTQSPLSLPVTPGEPASISCRSSQSLLLSHGFNYLDWYLQKPGQSPQLLIYLGSSRASGVPDRFSGSGSGTDFTLKISRVEAEDVGLYYCMQPLQIPWTFGQGTKVEIKRTVAAPSVFIFPPSDEQLKSGTASVVCLLNNFYPREAKVQWKVDNALQSGNSQESVTEQDSKDSTYSLSSTLTLSKADYEKHKVYACEVTHQGLSSPVTKSFNRGEC
modifications: vcMMAE (Val-Cit linker with monomethyl auristatin E) on cysteine sulfur atoms after partial reduction of disulfides with TCEP; positions not given; vcMMAE (Val-Cit linker with monomethyl auristatin E) on cysteine sulfur atoms after partial reduction of disulfides with TCEP; positions not given; preferred p between 3.5 and 3.7 drugs per antibody
notes: also called 158P1D7 ADC; Ha15ac12vcMMAE

Reference: patent USRE47103 (AGENSYS, dated 2018)
